Measurements taken from the supplement of paper PMC5998384.

Legend:
HeLa Kyoto [1] = test: solubility in G1/S (NP-40 vs SDS abundance) (log2 ratio); higher = more soluble; details: cell cycle stage: G1/S
HeLa Kyoto [2] = test: melting temperature (median over replicates), in situ; higher = more thermally stable
HeLa Kyoto [3] = test: solubility change mitosis vs G1/S (difference of NP-40 vs SDS log2 ratios) (log2 ratio difference); higher = more soluble in mitosis
HeLa Kyoto [4] = test: thermal stability score vs G1/S (z-score of summed log2 fold changes over temperatures); higher = more thermally stable than in G1/S
[5] = cell cycle stage: early G1 (4.5 h after nocodazole release)
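Throughout, for melting temperature (median over replicates), in situ: HeLa Kyoto cells synchronized by double thymidine or nocodazole block, proteins quantified by TMT10plex mass spectrometry, three independent biological replicates.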
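Throughout, for solubility change mitosis vs G1/S (difference of NP-40 vs SDS log2 ratios): synchronized HeLa Kyoto cells (double thymidine block for G1/S, nocodazole release for mitosis), protein amounts in NP-40 versus SDS lysates quantified by mass spectrometry, three biological replicates.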
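Throughout, for solubility in G1/S (NP-40 vs SDS abundance): HeLa Kyoto cells arrested at G1/S by double thymidine block, proteins quantified by TMT10plex mass spectrometry in mild NP-40 versus SDS extracts, three biological replicates.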
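Throughout, for thermal stability score vs G1/S (z-score of summed log2 fold changes over temperatures): synchronized HeLa Kyoto cells, proteins quantified by TMT10plex mass spectrometry, three biological replicates, mitosis taken 0.5 h after nocodazole release, G1/S directly after double thymidine block.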

Sequence | solubility in G1/S (log2) (HeLa Kyoto [1]) | melting temperature (HeLa Kyoto [2]; cell cycle stage: G1/S) | melting temperature (HeLa Kyoto [2]; cell cycle stage: mitosis) | solubility change mitosis (log2) (HeLa Kyoto [3]) | thermal stability score (HeLa Kyoto [4]; [5]) | thermal stability score (HeLa Kyoto [4]; cell cycle stage: mitosis)
MIDSSKKQQQGFPEILTAGDFEPLKEKECLEGSNQKSLKEVLQLRLQQRRTREQLVDQGIMPPLKSPAAFHEQIKSLERARTENFLKHKIRSRPDRSELVRMHILEETFAEPSLQATQMKLKRARLADDLNEKIAQRPGPMELVEKNILPVDSSVKEAIIGVGKEDYPHTQGDFSFDEDSSDALSPDQPASQESQGSAASPSEPKVSESPSPVTTNTPAQFASVSPTVPEFLKTPPTADQPPPRPAAPVLPTNTVSSAKPGPALVKQSHPKNPNDKHRSKKCKDPKPRVKKLKYHQYIPPDQKGEKNEPQMDSNYARLLQQQQLFLQLQILSQQKQHYNYQTILPAPFKPLNDKNSNSGNSALNNATPNTPRQNTSTPVRKPGPLPSSLDDLKVSELKTELKLRGLPVSGTKPDLIERLKPYQEVNSSGLAAGGIVAVSSSAIVTSNPEVTVALPVTTLHNTVTSSVSTLKAELPPTGTSNATRVENVHSPLPISPSPSEQSSLSTDDTNMADTFTEIMTMMSPSQFLSSSPLRMTNNEDSLSPTSSTLSNLELDAAEKDRKLQEKEKQIEELKRKLEQEQKLVEVLKMQLEVEKRGQQQRPLEAQPSAPGHSVKSDQKHGSLGSSIKDEASLPDCSSSRQPIPVASHAVGQPVSTGGQTLVAKKAVVIKQEVPVGQAEQQSVVSQFYVSSQGQPPPAVVAQPQALLTTQTAQLLLPVSIQGSSVTSVQLPVGSLKLQTSPQAGMQTQPQIATAAQIPTAALASGLAPTVPQTQDTFPQHVLSQPQQVRKVFTNSASSNTVLPYQRHPAPAVQQPFINKASNSVLQSRNAPLPSLQNGPNTPNKPSSPPPPQQFVVQHSLFGSPVAKTKDPPRYEEAIKQTRSTQAPLPEISNAHSQQMDDLFDILIKSGEISLPIKEEPSPISKMRPVTASITTMPVNTVVSRPPPQVQMAPPVSLEPMGSLSASLENQLEAFLDGTLPSANEIPPLQSSSEDREPFSLIEDLQNDLLSHSGMLDHSHSPMETSETQFAAGTPCLSLDLSDSNLDNMEWLDITMPNSSSGLTPLSTTAPSMFSADFLDPQDLPLPWD [MKL2] | 0.208 | 52.5 °C | 53 °C | -0.304 | 1.45 | 3.81
MIGCGACEPKVKMAGGQAAAALPTWKMAARRSLSARGRGILQAAAGRLLPLLLLSCCCGAGGCAAVGENEETVIIGLRLEDTNDVSFMEGGALRVSERTRVKLRVYGQNINNETWSRIAFTEHERRRHSPGERGLGGPAPPEPDSGPQRCGIRTSDIIILPHIILNRRTSGIIEIEIKPLRKMEKSKSYYLCTSLSTPALGAGGSGSTGGAVGGKGGSGVAGLPPPPWAETTWIYHDGEDTKMIVGEEKKFLLPFWLQVIFISLLLCLSGMFSGLNLGLMALDPMELRIVQNCGTEKEKNYAKRIEPVRRQGNYLLCSLLLGNVLVNTTLTILLDDIAGSGLVAVVVSTIGIVIFGEIVPQAICSRHGLAVGANTIFLTKFFMMMTFPASYPVSKLLDCVLGQEIGTVYNREKLLEMLRVTDPYNDLVKEELNIIQGALELRTKTVEDVMTPLRDCFMITGEAILDFNTMSEIMESGYTRIPVFEGERSNIVDLLFVKDLAFVDPDDCTPLKTITKFYNHPLHFVFNDTKLDAMLEEFKKGKSHLAIVQRVNNEGEGDPFYEVLGIVTLEDVIEEIIKSEILDETDLYTDNRTKKKVAHRERKQDFSAFKQTDSEMKVKISPQLLLAMHRFLATEVEAFSPSQMSEKILLRLLKHPNVIQELKYDEKNKKAPEYYLYQRNKPVDYFVLILQGKVEVEAGKEGMKFEASAFSYYGVMALTASPVPLSLSRTFVVSRTELLAAGSPGENKSPPRPCGLNHSDSLSRSDRIDAVTPTLGSSNNQLNSSLLQVYIPDYSVRALSDLQFVKISRQQYQNALMASRMDKTPQSSDSENTKIELTLTELHDGLPDETANLLNEQNCVTHSKANHSLHNEGAI [CNNM2] | -0.386 |  | 51.1 °C | 0.346 | -1.21 | -1.62
MIGGLFIYNHKGEVLISRVYRDDIGRNAVDAFRVNVIHARQQVRSPVTNIARTSFFHVKRSNIWLAAVTKQNVNAAMVFEFLYKMCDVMAAYFGKISEENIKNNFVLIYELLDEILDFGYPQNSETGALKTFITQQGIKSQHQTKEEQSQITSQVTGQIGWRREGIKYRRNELFLDVLESVNLLMSPQGQVLSAHVSGRVVMKSYLSGMPECKFGMNDKIVIEKQGKGTADETSKSGKQSIAIDDCTFHQCVRLSKFDSERSISFIPPDGEFELMRYRTTKDIILPFRVIPLVREVGRTKLEVKVVIKSNFKPSLLAQKIEVRIPTPLNTSGVQVICMKGKAKYKASENAIVWKIKRMAGMKESQISAEIELLPTNDKKKWARPPISMNFEVPFAPSGLKVRYLKVFEPKLNYSDHDVIKWVRYIGRSGIYETRC [AP2M1] | -0.387 | 52.3 °C | 51.6 °C | 0.00223 | -2.25 | -0.263
